From the supplement of paper PMC5998384

Legend:
[1] = tested on: HeLa Kyoto; experiment: melting temperature (median over replicates), in situ; higher = more thermally stable
[2] = tested on: HeLa Kyoto; experiment: solubility change mitosis vs G1/S (difference of NP-40 vs SDS log2 ratios) (log2 ratio difference); higher = more soluble in mitosis
[3] = tested on: HeLa Kyoto; experiment: thermal stability score vs G1/S (z-score of summed log2 fold changes over temperatures); higher = more thermally stable than in G1/S
[4] = tested on: HeLa Kyoto; experiment: solubility in G1/S (NP-40 vs SDS abundance) (log2 ratio); higher = more soluble; details: cell cycle stage: G1/S
[5] = cell cycle stage: early G1 (4.5 h after nocodazole release)
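For melting temperature (median over replicates), in situ in this document: HeLa Kyoto cells synchronized by double thymidine or nocodazole block, proteins quantified by TMT10plex mass spectrometry, three independent biological replicates.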
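For solubility change mitosis vs G1/S (difference of NP-40 vs SDS log2 ratios) in this document: synchronized HeLa Kyoto cells (double thymidine block for G1/S, nocodazole release for mitosis), protein amounts in NP-40 versus SDS lysates quantified by mass spectrometry, three biological replicates.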
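For solubility in G1/S (NP-40 vs SDS abundance) in this document: HeLa Kyoto cells arrested at G1/S by double thymidine block, proteins quantified by TMT10plex mass spectrometry in mild NP-40 versus SDS extracts, three biological replicates.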
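For thermal stability score vs G1/S (z-score of summed log2 fold changes over temperatures) in this document: synchronized HeLa Kyoto cells, proteins quantified by TMT10plex mass spectrometry, three biological replicates, mitosis taken 0.5 h after nocodazole release, G1/S directly after double thymidine block.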

Row | Substance | melting temperature ([1]; cell cycle stage: mitosis) | solubility change mitosis (log2) [2] | thermal stability score [3, 5] | thermal stability score ([3]; cell cycle stage: mitosis) | solubility in G1/S (log2) [4] | melting temperature ([1]; cell cycle stage: G1/S)
1 | MAVRSLWAGRLRVQRLLAWSAAWESKGWPLPFSTATQRTAGEDCRSEDPPDELGPPLAERALRVKAVKLEKEVQDLTVRYQRAIADCENIRRRTQRCVEDAKIFGIQSFCKDLVEVADILEKTTECISEESEPEDQKLTLEKVFRGLLLLEAKLKSVFAKHGLEKLTPIGDKYDPHEHELICHVPAGVGVQPGTVALVRQDGYKLHGRTIRLARVEVAVESQRRL [GRPEL2] | 48.4 °C | -0.104 | -0.696 | 2.19 | 0.335 | –
2 | MASSEQAEQPSQPSSTPGSENVLPREPLIATAVKFLQNSRVRQSPLATRRAFLKKKGLTDEEIDMAFQQSGTAADEPSSLGPATQVVPVQPPHLISQPYSPAGSRWRDYGALAIIMAGIAFGFHQLYKKYLLPLILGGREDRKQLERMEAGLSELSGSVAQTVTQLQTTLASVQELLIQQQQKIQELAHELAAAKATTSTNWILESQNINELKSEINSLKGLLLNRRQFPPSPSAPKIPSWQIPVKSPSPSSPAAVNHHSSSDISPVSNESTSSSPGKEGHSPEGSTVTYHLLGPQEEGEGVVDVKGQVRMEVQGEEEKREDKEDEEDEEDDDVSHVDEEDCLGVQREDRRGGDGQINEQVEKLRRPEGASNESERD [PEX14] | 53.6 °C | 0.164 | 0.978 | 1.36 | 0.332 | 53.2 °C
3 | MDVLVSECSARLLQQEEEIKSLTAEIDRLKNCGCLGASPNLEQLQEENLKLKYRLNILRKSLQAERNKPTKNMINIISRLQEVFGHAIKAAYPDLENPPLLVTPSQQAKFGDYQCNSAMGISQMLKTKEQKVNPREIAENITKHLPDNECIEKVEIAGPGFINVHLRKDFVSEQLTSLLVNGVQLPALGENKKVIVDFSSPNIAKEMHVGHLRSTIIGESISRLFEFAGYDVLRLNHVGDWGTQFGMLIAHLQDKFPDYLTVSPPIGDLQVFYKESKKRFDTEEEFKKRAYQCVVLLQGKNPDITKAWKLICDVSRQELNKIYDALDVSLIERGESFYQDRMNDIVKEFEDRGFVQVDDGRKIVFVPGCSIPLTIVKSDGGYTYDTSDLAAIKQRLFEEKADMIIYVVDNGQSVHFQTIFAAAQMIGWYDPKVTRVFHAGFGVVLGEDKKKFKTRSGETVRLMDLLGEGLKRSMDKLKEKERDKVLTAEELNAAQTSVAYGCIKYADLSHNRLNDYIFSFDKMLDDRGNTAAYLLYAFTRIRSIARLANIDEEMLQKAARETKILLDHEKEWKLGRCILRFPEILQKILDDLFLHTLCDYIYELATAFTEFYDSCYCVEKDRQTGKILKVNMWRMLLCEAVAAVMAKGFDILGIKPVQRM [RARS] | 48.9 °C | -0.175 | 0.328 | 1.95 | -0.181 | 49 °C
4 | MKVKMLSRNPDNYVRETKLDLQRVPRNYDPALHPFEVPREYIRALNATKLERVFAKPFLASLDGHRDGVNCLAKHPEKLATVLSGACDGEVRIWNLTQRNCIRTIQAHEGFVRGICTRFCGTSFFTVGDDKTVKQWKMDGPGYGDEEEPLHTILGKTVYTGIDHHWKEAVFATCGQQVDIWDEQRTNPICSMTWGFDSISSVKFNPIETFLLGSCASDRNIVLYDMRQATPLKKVILDMRTNTICWNPMEAFIFTAANEDYNLYTFDMRALDTPVMVHMDHVSAVLDVDYSPTGKEFVSASFDKSIRIFPVDKSRSREVYHTKRMQHVICVKWTSDSKYIMCGSDEMNIRLWKANASEKLGVLTSREKAAKDYNQKLKEKFQHYPHIKRIARHRHLPKSIYSQIQEQRIMKEARRRKEVNRIKHSKPGSVPLVSEKKKHVVAVVK [DCAF13] | – | 0.446 | -1.4 | -1.29 | -2.16 | 54.8 °C
5 | GMPS | 51.6 °C | -0.148 | 2.38 | 1.21 | 0.0167 | 51.1 °C
6 | MVEADRPGKLFIGGLNTETNEKALEAVFGKYGRIVEVLLMKDRETNKSRGFAFVTFESPADAKDAARDMNGKSLDGKAIKVEQATKPSFESGRRGPPPPPRSRGPPRGLRGGRGGSGGTRGPPSRGGHMDDGGYSMNFNMSSSRGPLPVKRGPPPRSGGPPPKRSAPSGPVRSSSGMGGRAPVSRGRDSYGGPPRREPLPSRRDVYLSPRDDGYSTKDSYSSRDYPSSRDTRDYAPPPRDYTYRDYGHSSSRDDYPSRGYSDRDGYGRDRDYSDHPSGGSYRDSYESYGNSRSAPPTRGPPPSYGGSSRYDDYSSSRDGYGGSRDSYSSSRSDLYSSGRDRVGRQERGLPPSMERGYPPPRDSYSSSSRGAPRGGGRGGSRSDRGGGRSRY [RBMX] | 50.5 °C | 0.777 | -0.25 | 7.17 | -0.567 | 47.5 °C
7 | MGRRSTSSTKSGKFMNPTDQARKEARKRELKKNKKQRMMVRAAVLKMKDPKQIIRDMEKLDEMEFNPVQQPQLNEKVLKDKRKKLRETFERILRLYEKENPDIYKELRKLEVEYEQKRAQLSQYFDAVKNAQHVEVESIPLPDMPHAPSNILIQDIPLPGAQPPSILKKTSAYGPPTRAVSILPLLGHGVPRLPPGRKPPGPPPGPPPPQVVQMYGRKVGFALDLPPRRRDEDMLYSPELAQRGHDDDVSSTSEDDGYPEDMDQDKHDDSTDDSDTDKSDGESDGDEFVHRDNGERDNNEEKKSGLSVRFADMPGKSRKKKKNMKELTPLQAMMLRMAGQEIPEEGREVEEFSEDDDEDDSDDSEAEKQSQKQHKEESHSDGTSTASSQQQAPPQSVPPSQIQAPPMPGPPPLGPPPAPPLRPPGPPTGLPPGPPPGAPPFLRPPGMPGLRGPLPRLLPPGPPPGRPPGPPPGPPPGLPPGPPPRGPPPRLPPPAPPGIPPPRPGMMRPPLVPPLGPAPPGLFPPAPLPNPGVLSAPPNLIQRPKADDTSAATIEKKATATISAKPQITNPKAEITRFVPTALRVRRENKGATAAPQRKSEDDSAVPLAKAAPKSGPSVPVSVQTKDDVYEAFMKEMEGLL [WBP11] | 53.8 °C | 0.186 | -1.77 | -3.87 | 0.135 | 55.4 °C
8 | MAAERQEALREFVAVTGAEEDRARFFLESAGWDLQIALASFYEDGGDEDIVTISQATPSSVSRGTAPSDNRVTSFRDLIHDQDEDEEEEEGQRFYAGGSERSGQQIVGPPRKKSPNELVDDLFKGAKEHGAVAVERVTKSPGETSKPRPFAGGGYRLGAAPEEESAYVAGEKRQHSSQDVHVVLKLWKSGFSLDNGELRSYQDPSNAQFLESIRRGEVPAELRRLAHGGQVNLDMEDHRDEDFVKPKGAFKAFTGEGQKLGSTAPQVLSTSSPAQQAENEAKASSSILIDESEPTTNIQIRLADGGRLVQKFNHSHRISDIRLFIVDARPAMAATSFILMTTFPNKELADESQTLKEANLLNAVIVQRLT [NSFL1C] | 52 °C | 0.0342 | -1.97 | 1.13 | 0.384 | 51.7 °C
9 | MATSVGHRCLGLLHGVAPWRSSLHPCEITALSQSLQPLRKLPFRAFRTDARKIHTAPARTMFLLRPLPILLVTGGGYAGYRQYEKYRERELEKLGLEIPPKLAGHWEVALYKSVPTRLLSRAWGRLNQVELPHWLRRPVYSLYIWTFGVNMKEAAVEDLHHYRNLSEFFRRKLKPQARPVCGLHSVISPSDGRILNFGQVKNCEVEQVKGVTYSLESFLGPRMCTEDLPFPPAASCDSFKNQLVTREGNELYHCVIYLAPGDYHCFHSPTDWTVSHRRHFPGSLMSVNPGMARWIKELFCHNERVVLTGDWKHGFFSLTAVGATNVGSIRIYFDRDLHTNSPRHSKGSYNDFSFVTHTNREGVPMRKGEHLGEFNLGSTIVLIFEAPKDFNFQLKTGQKIRFGEALGSL [PISD] | 50.9 °C | -0.00593 | -1.35 | -0.739 | -0.127 | 51.7 °C
10 | MAGAAGLTAEVSWKVLERRARTKRSGSVYEPLKSINLPRPDNETLWDKLDHYYRIVKSTLLLYQSPTTGLFPTKTCGGDQKAKIQDSLYCAAGAWALALAYRRIDDDKGRTHELEHSAIKCMRGILYCYMRQADKVQQFKQDPRPTTCLHSVFNVHTGDELLSYEEYGHLQINAVSLYLLYLVEMISSGLQIIYNTDEVSFIQNLVFCVERVYRVPDFGVWERGSKYNNGSTELHSSSVGLAKAALEAINGFNLFGNQGCSWSVIFVDLDAHNRNRQTLCSLLPRESRSHNTDAALLPCISYPAFALDDEVLFSQTLDKVVRKLKGKYGFKRFLRDGYRTSLEDPNRCYYKPAEIKLFDGIECEFPIFFLYMMIDGVFRGNPKQVQEYQDLLTPVLHHTTEGYPVVPKYYYVPADFVEYEKNNPGSQKRFPSNCGRDGKLFLWGQALYIIAKLLADELISPKDIDPVQRYVPLKDQRNVSMRFSNQGPLENDLVVHVALIAESQRLQVFLNTYGIQTQTPQQVEPIQIWPQQELVKAYLQLGINEKLGLSGRPDRPIGCLGTSKIYRILGKTVVCYPIIFDLSDFYMSQDVFLLIDDIKNALQFIKQYWKMHGRPLFLVLIREDNIRGSRFNPILDMLAALKKGIIGGVKVHVDRLQTLISGAVVEQLDFLRISDTEELPEFKSFEELEPPKHSKVKRQSSTPSAPELGQQPDVNISEWKDKPTHEILQKLNDCSCLASQAILLGILLKREGPNFITKEGTVSDHIERVYRRAGSQKLWLAVRYGAAFTQKFSSSIAPHITTFLVHGKQVTLGAFGHEEEVISNPLSPRVIQNIIYYKCNTHDEREAVIQQELVIHIGWIISNNPELFSGMLKIRIGWIIHAMEYELQIRGGDKPALDLYQLSPSEVKQLLLDILQPQQNGRCWLNRRQIDGSLNRTPTGFYDRVWQILERTPNGIIVAGKHLPQQPTLSDMTMYEMNFSLLVEDTLGNIDQPQYRQIVVELLMVVSIVLERNPELEFQDKVDLDRLVKEAFNEFQKDQSRLKEIEKQDDMTSFYNTPPLGKRGTCSYLTKAVMNLLLEGEVKPNNDDPCLIS [PHKB] | 49.3 °C | -0.191 | -0.245 | 0.284 | -0.047 | 50.2 °C
11 | MQEKDASSQGFLPHFQHFATQAIHVGQDPEQWTSRAVVPPISLSTTFKQGAPGQHSGFEYSRSGNPTRNCLEKAVAALDGAKYCLAFASGLAATVTITHLLKAGDQIICMDDVYGGTNRYFRQVASEFGLKISFVDCSKIKLLEAAITPETKLVWIETPTNPTQKVIDIEGCAHIVHKHGDIILVVDNTFMSPYFQRPLALGADISMYSATKYMNGHSDVVMGLVSVNCESLHNRLRFLQNSLGAVPSPIDCYLCNRGLKTLHVRMEKHFKNGMAVAQFLESNPWVEKVIYPGLPSHPQHELVKRQCTGCTGMVTFYIKGTLQHAEIFLKNLKLFTLAESLGGFESLAELPAIMTHASVLKNDRDVLGISDTLIRLSVGLEDEEDLLEDLDQALKAAHPPSGSHS [CTH] | 58.5 °C | -0.134 | -1.76 | -0.741 | 0.283 | 59 °C
12 | MTILPKKKPPPPDADPANEPPPPGPMPPAPRRGGGVGVGGGGTGVGGGDRDRDSGVVGARPRASPPPQGPLPGPPGALHRWALAVPPGAVAGPRPQQASPPPCGGPGGPGGGPGDALGAAAAGVGAAGVVVGVGGAVGVGGCCSGPGHSKRRRQAPGVGAVGGGSPEREEVGAGYNSEDEYEAAAARIEAMDPATVEQQEHWFEKALRDKKGFIIKQMKEDGACLFRAVADQVYGDQDMHEVVRKHCMDYLMKNADYFSNYVTEDFTTYINRKRKNNCHGNHIEMQAMAEMYNRPVEVYQYSTGTSAVEPINTFHGIHQNEDEPIRVSYHRNIHYNSVVNPNKATIGVGLGLPSFKPGFAEQSLMKNAIKTSEESWIEQQMLEDKKRATDWEATNEAIEEQVARESYLQWLRDQEKQARQVRGPSQPRKASATCSSATAAASSGLEEWTSRSPRQRSSASSPEHPELHAELGMKPPSPGTVLALAKPPSPCAPGTSSQFSAGADRATSPLVSLYPALECRALIQQMSPSAFGLNDWDDDEILASVLAVSQQEYLDSMKKNKVHRDPPPDKS [OTUD5] | 52.4 °C | 0.178 | -1.93 | 0.592 | 0.259 | 51.6 °C
